Source: a protein production outcome set (Wang et al. 2014)

Assay: label from the status in PepcDB records

MAANSNSRVASNHTSKKQKVRRNIHPFTNNTRIKRASKIVKFNDSGEGDHVSDQRSNKENVLTYKSLKSRASDLLKMRETLPVYQHKREIMSYIESNPVTVLIGETGSGKSTQIPQFVLEKLYDTKKHGSIAVTQPRRVAAINLATRVAQEHGCKLGEQVGYSVRFDNTTTTRTRLKYLTDGMLLRELMMNSDLREYSVIVIDEAHERTVLTDLILGFLKSLIQGPRPDLRIIVMSATLQAEKFSEFFNNAPILFVEGRKFDVKQYYLKAPTDDIVDAVIRCCIQINQGEELGDILCFLPGQEEIDKAVTIMEKIAKYVSDEAPVPLIVPYPLYAALPAVQQSLVFAPIKGFKRKVVFSTNIAETSVTISGVKFVVDSGLRKVKVWRHQLGLATLLTVPISQASAMQRSGRAGRESEGKSFRLYCESDYVKLPKQSEPEIARSDVTSPVLMLKRYGVDDLLNWTWFENPGKEAIVMGLQELYELGALDTRGKITKRGQQMALLPLQPHLSSVLIKASEVGCLSQVIDIVSCLSVENLLLNPSPEERDEVNERRLSLCNAGKRYGDLIMLKELFDIYFYELGKSQDASSERNDWCKGLCISIRGFKNVIRVRDQLRVYCKRLFSSISEEDEESKKIGEDGELISKILKCFLTGFIKNTAIGMPDRSYRTVSTGEPISIHPSSMLFMNKSCPGIMYTEYVFTTKGYARNVSRIELSWLQEVVTNAAAVAKQKVSDSK
protein production: failed

MSRMMKMGTGTLRVILWFASILIWFSIFVPIEYLVNYFSGETTNYILHSDDFMMPIKTHVASTNAIASFPSGLYTTLMIIGYILMLVGVFITIQAVSAIVRHIQEQDYFSTENSQQMNRIVKGQIWILGSSLLMACANQLTVSWLYRISQFGLGWDNLLSAFVDLIIFALIAMIYTRAVNMKTESDLTI
protein production: failed

EEGNSSELPLSAEDAKKLTELAENVLQGWDVQAEKIDVIQGNQMALVWKVHTDSGAVCLKRIHRPEKKALFSIFAQDYLAKKGMNVPGILPNKKGSLYSKHGSFLFVVYDWIEGRPFELTVKQDLEFIMKGLADFHTASVGYQPPNGVPIFTKLGRWPNHYTKRCKQMETWKLMAEAEKEDPFSQLYLQEIDGFIEDGLRIKDRLLQSTYVPWTEQLKKSPNLCHQDYGTGNTLLGENEQIWVIDLDTVSFDLPIRDLRKMIIPLLDTTGVWDDETFNVMLNAYESRAPLTEEQKQVMFIDMLFPYELYDVIREKYVRKSALPKEELESAFEYERIKANALRQLI
protein production: not failed

MSSKNTAEVILGGKVIKLGGYESEEYLQRVASYINNKITEFNKEESYRRMSAELRTDMMYLNIADDYFKAKKMADSLSLDIENKDKEIYDLKHELIAAQIKAESSAKEIKELKSEINKYQKNIVKLETELNDSKK
protein production: not failed

MCTPFIFVVYAKSKYLCVLISNEMGKNKLEKFADMASYPHVFEYPYSAVDNVPFDMKGKWHQEFFGNDHPIVLELGCGRGEYTVGLGRMFPDKNFIAVDIKGSRMWTGATESLQAGMKNVAFLRTNIEIIERFFAAGEVSEIWLTFSDPQMKKATKRLTSTYFMERYRKFLKPDGIIHLKTDSNFMFTYTKYMIEANQLPVEFITEDLYHSDLVDDILSIKTYYEQQWLDRGLNIKYIKFRLPLEHHHHHH
protein production: failed

MGNLSKPVGIGAGGLDLLMPMHLRLDPLGEIAGCGPTLRKLFAESPVRRPFFDLFKVRRPTGIETPAALAARTGVRLHLTTLDGGVSLRGVATPKHEGRGLLLNLSFGISVIEAVRRHGLTDGDFAPTDLAVELLYLVEAKTAVAEELRRLNGRLERARRLAEEEALTDELTGLRNRRAIDQALEAVIATRRPFGLMHLDLDFFKEVNDSFGHAAGDEVLRAVAQVLSRETRTGDTVARIGGDEFMMLFPGLSDPAPMKRLAARVIADVARPIPFGGGVCRVSASIGMTLSVRYDRPDLARMLADADEALYAAKRAGRGTAVLSEGMRPERRRDP
protein production: failed

MTLSAIQPNDMALYHYDSCPFCAKTRHAINELDLNIELRNIQKNHQHRIELQQGGNKTQVPCLRIGQSNGKAQWLYESGDIINFLRNRK
protein production: failed

MSLNHHPIIYLVDHQKDARAALSKLLSPLDVTIQCFASAESFMRQQISDDAIGMIIEAHLEDKKDSGIELLETLVKRGFHLPTIVMASSSDIPTAVRAMRASAADFIEKPFIEHVLVHDVQQIINGAKEGHHHHHH
protein production: not failed

MKTLGNILWFIFGGFFGGLSWLFAGVIWCITIIGIPIGLQCFKLAGLSFWPFKKRVVYSDSGVSLVVNIIWLIISGLPLAIGHCISGLFLCLTIIGIPFGQQSFKLAKLALMPFGARVVSTNDFYFE
protein production: failed

MLYIFTPTFNRGYRLSYLYDSLCNQTNKNFIWLIVDDGSEDSTKEIVSNYIKENKVSIVYLYKRNGGKHSAYNLAMRYMQPSDYHVCVDSDDWLLEDAVEIIFKDLESLTLSNRYVGLVYPRYSLNQGNNWLNPKILEVNIPDLKYKYHLKIETCIVINNAYLVDFEFPCFEGENFLSEEIMYIYLSKKGYFCPQNRKIYCFDYLEDGLTSNIFKLWRKNFKGTIFSLENSYMYVMSFPNIFDRWWSAIKIKMNIQALKMTTLGVIPTLKSEEAGWKILLGFSYLWKVARFKKSELEHHHHHH
protein production: not failed

MAAAVPQRAWTVEQLRSEQLPKKDIIKFLQEHGSDSFLAEHKLLGNIKNVAKTANKDHLVTAYNHLFETK
protein production: not failed

MFKNKLAVLFTCLSVFSFSAQSGSFDTVTLGSKGGIQDGNLTAFLIKSEADSNFVMLDAGSVVNGLIVSEQKGAFKDITVPDSSPYTKVGYLLKDKIKGYFISHAHLDHVAGLIISSPDDSKKPIYGLAATNKDLMKNYFNWSAWPNFGNKGEGFKLNKYNYVDLQPGVWSPIAETTMSVMSLPLSHSGGQSTVFILKDSEGDVFAYFGDTGPDEVEKSSAMKTAWSALAPFVKQGKLKGIIIEVSFTNETPDKSLFGHLTPNWLVKELSVLEDMNGKGSLNDLNVAISHIKYSLKNSEDPKVIIKKQLAEANDLGVNFIFPEQGDSLQF
protein production: failed

MLPDVQLLKPEVPIGLSRVGATGIKKLVEVQREGKRPIILISTFDVFVDLPAHLKGVNLSRNFEVIDEVLETLTAKPIENIEDLVVEIADHLLKRHEYATKAEARMNSELIMRKRTPKTGQRTQEVVKIFGEATLGRDGSKVIMVGVEVTGITACPCAQELVKASSAERLAKMGFDEETIQKILDAIPVATHNQRGRATLKVQVTDSFKVPIAKLIDVAKSSMSYETYEILKREDELAVVEAAHRNTRFVEDGVRYMAMELLKTFPNAPDDILVFLRQENEESIHQHNVVAERFA
protein production: failed

MKQEEEPWIDHLKQRVNEYEKPLPENDWNHFQTEFFTPYLHKRRRMKTMRIAAVFFLIFIPFATTFYFLQTEKHEAASPVVSLPACQPRSITGSPSIMPENKLLQDRTKSKTASLTRPPIQTSIHTDTANNIETECMPPVQDTIRDTESVHKRPSGHKHFALPYKRSGYTLALAISAGNNGASTGFINKTFSRGDIGSSHKDEIMYWSDFKDYLQEYPSDFPDAQAYEALLQIANDNTGRPMTEYTHYNLPVSIELSLRKSISRHWGVSAGLQYTYLSSESSIGEDSKWVKRQKLHYIGLSVKLDRRLYTTRTFSFYATGGGTIDKSVSGKLEQDFIVQKEKIYSSTENLKIKPFQFSIHAALGIQYNINPTLGAFIEPGTVFYFKDGSFKNTIRDKHPLHFNLQLGVRWNY
protein production: failed

MKIILANPRGFCAGVDRAISIVELALEIHGAPIYVRHEVVHNRFVVNGLRERGAIFVEELSEVPDGAIVIFSAHGVSQAVRQEAKDRNLKVFDATCPLVTKVHMQVARASRKGTKAILIGHKGHPEVEGTMGQYSNEDGGIFLIEKVEDIARLPMQENDNLTFMTQTTLSLDDTAETIAALKEKYPAIQGPHKNDICYATTNRQEAVRELAKLSDLVLVVGSKNSSNSNRLAELASRMGVKSQLLDEPADIQADWFNDVKTIGITAGASAPEELGQSIISRLKRFGAN
protein production: failed

MANLAASTCLYSWLLVLLLSSVSAIIDEDTQVYIVYMGSLSSRADYIPTSDHMSILQQVTGESSIEGRLVRSYKRSFNGFAARLTESERTLIAEIEGVVSVFPNKILQLHTTTSWDFMGVKEGKNTKRNLAIESDTIIGVIDTGIWPESKSFSDKGFGPPPKKWKGVCSGGKNFTCNNKLIGARDYTSEGTRDTSGHGTHTASTAAGNAVKDTSFFGIGNGTVRGGVPASRIAAYKVCTDSGCSSEALLSSFDDAIADGVDLITISIGFQFPSIFEDDPIAIGAFHAMAKGILTVSSAGNSGPKPTTVSHVAPWIFTVAASTTNRGFITKVVLGNGKTLAGRSVNAFDMKGKKYPLVYGKSAASSACDAKTAALCAPACLNKSRVKGKILVCGGPSGYKIAKSVGAIAIIDKSPRPDVAFTHHLPASGLKAKDFKSLVSYIESQDSPQAAVLKTETIFNRTSPVIASFSSRGPNTIAVDILKPDITAPGVEILAAFSPNGEPSEDDTRRVKYSVFSGTSMACPHVAGVAAYVKTFYPRWSPSMIQSAIMTTAWPVKAKGRGIASTEFAYGAGHVDPMAALNPGLVYELDKADHIAFLCGMNYTSKTLKIISGDTVKCSKKNKILPRNLNYPSMSAKLSGTDSTFSVTFNRTLTNVGTPNSTYKSKVVAGHGSKLSIKVTPSVLYFKTVNEKQSFSVTVTGSDVDSEVPSSANLIWSDGTHNVRSPIVVYIMVVDEA
protein production: failed

MNLEHHSNHYQPTCSIEALQARAKLYQTIRTFFAERGVLEVETPIISQAGVTDVHLASVKALRHIEGKERTQYLQTSPEFAMKRLLASGSGPIYQLCKVFRDDEHGRKHNSEFTMLEWYRPEFDLKDLMHETADLLETCLKQRFDEIRPMILSYKHAFQDRLEINPLQATLKQLKDTADRVGLNLDLGNDRLAYIDLLFSHIVEPSLGFDTPVFLTDFPPEMASLAKVRIDEDGEEVAARFEVYIEGLELANAYDELLDANILRARFEADNLERKLQGLAEMPLDENLLAALPHMPACAGIALGVDRLLMIATRQLKIEQVIAFPAAIA
protein production: failed

MRIIFKIIAFLSFFAFLSGCGAGLTAFSKGERLEREGKLDEAVIKYSEAVASNPEMNEYRMRLLKTSEEAALRHLSKGDEFIALKNYDAALVEYQAAVALDPSLQRAKQESDKLVRQKNSRTYFKEGQDFERGNKPREALQAYRKALDLDGQNKEAKEALERLLSTKKTRLEGYELNLKSTKPITLKFKDANLKDVFYIVTQLSGINFIFDDTIKDQKVTIYLENANFQQALDLLTNMNKLGKKVLNESTILIFPKTPEKSKQYEDLVVKTFFLNTLDAKKAVNLLRTMLQVRKVYVNEELNAIVVRDTSELVDVAGKILEANDVPDAEVLLDVEVIEVSKRNIENFGLALSKYAVSLNTQTPGGGFLNDTFSRASVSSSTGTTIQGTAGSELLQTFSWNGYSGFMTVPSASYSFGKSITNAEVLANPKIRVKNREKSKFTVGTRVPITTTSTTGTTGGFSVNVQYVDVGVKLNAEPTIMLNNEVSIKLGLEVSSIIDKQTVGGTDSATTVVTIGTRNLDTVLNLKDGETSVIGGLIEDNKQKGKQKIFLLGDIPIIGPLLSNNSNDNQKRELILAITPRLVRSVTVPEPDLVSFWSGKEDDPSVVKPFASFELEPEFAIGQPKTVKQPAASPAPVPASVSAPAQRVAPLQPVPGSPAPTAAPQTTTSPEVKQSAAPAPGQQPAPPSTAQSQAVAPLPVPASPAAPAATVAAASAVPVAAAPAPAVRGSLNISAPAAVNLGSQFKVEIRVSDVKGLLKAPFVLIYDPIFIDYVGAVEGTFLNRDGKPTSFNAQVDKAKGRVTITLARTGAEGIDGAGSLLTATFTAKNKGPASLGLQSVNFTDQANKPIDVVPYNTVVEVK
protein production: failed

MGMAASFARASSVIMPAPPRRYFSRQRFHNFRRLAIIGSKATRSGDTAAMTDGKHLDALTAAYAAKRPEEVAALYDRWSRTYDADMSAAGYRHPTICLALLTRHLPRGAAPLLDAGAGTGLIGEWLDISGYPEVEALDISQGMLDQAARKGVYSALHCLALGGALPFADDAYAGIVSAGVFTSGHVGVEGLNELIRICRPGGVIVLTVKNTLWEQGFAARIAELEAQGVVTRAEETRPYVSMPGEADTVPSRGLALRVN
protein production: failed
